Experimental data from patent publication US20130035289A1, “PHARMACEUTICAL COMPOSITION FOR TREATMENT OF THROMBOSIS-RELATED DISEASES COMPRISING A FRAGMENT OF PROLACTIN (PRL)-GROWTH HORMONE (GH)-PLACENTAL LACTOGEN (PL)-FAMILY PROTEIN” (UNIVERSITE DE LIEGE, priority 2010, published 2013).

Experiments:
[1] = biological target: T1, PAI-1 (Homo sapiens, UniProt P05121); assay: Inhibition of PAI-1 anti-proteolytic activity, uPA/plasminogen chromogenic (colorimetric) assay; type: biochemical; conditions: for PAI-1 activity in vitro (chromogenic assay): yes/no, table title: Peptide fragments inhibiting PAI-1
T1 construct: gift of Pr; P. Declerck
Experimental: The main physiological function of PAI-1 is to inhibit uPA and tPA proteolytic activity. […] A chromogenic substrate for plasmin (Spectrozyme PL: 0.5 mM. American Diagnostica INC) in PBS was added to the mixture in 96-well microtitration plates and kept at room temperature. The release of free p-nitro-aniline from the chromogenic substrate was measured spectrophotometrically. The activity of plasmin was determined as the absorbance at 405 nm.

[2] = biological target: T1, PAI-1; assay: Casein zymography of plasmin generation by uPA in presence of PAI-1; type: biochemical
Experimental: (a) Proteolytic activity of uPA on plasminogen (Plg) in different conditions was determined by colorimetric assay (absorbance at 405 nm) as described in Methods. […] The data represent the means±SD of duplicate samples and experiment was repeated at least three times. (b) Casein zymography showing Plg and plasmin (Pln) generation by uPA in the presence of PAI-1 alone or in combination with 14K GH or 22K GH.
For this test casein (1 mg/ml) was incorporated in 10% SDS polyacrylamide gels. Aliquots of in vitro reaction including recombinant proteins were mixed with loading buffer (10% SDS, 4% Sucrose, 0.25M Tris-Hcl pH6-8, 0.1% Bromophenol blue). After electrophoresis, SDS was removed from the gel by two washes (30 min each) of 100 mM glycine, 2.5% Triton buffer (pH 8.0) stained with 0.1% coomassie brilliant bleu, and destained in 20% methanol/10% acetic acid.

[3] = biological target: T1, PAI-1; assay: In vitro clot lysis assay in pooled normal human plasma with added PAI-1 and tPA; type: biochemical; conditions: peptides 25 μM, human plasma; for ablility to induce clot lysis: yes/no, added PAI-1, tPA
Experimental: Clot lysis was performed as follows: pooled normal plasma were used in citrated tube. Recombinant wild type PAI-1 was incubated in the presence or in the absence of 16K hPRL (3 μM), 14K hGH (3 μM) or different peptides (25 μM) for 10 min at 37° C., before to be added to diluted plasma in tris tween buffer (75 μl of plasma in 200 μl of 10 mM TRIS pH 7.5, 0.01% tween 20), followed by a second incubation for 10 min at 37° C. tPA was added to each tube at the end to reach a final volume of […]. Aliquots from each tube (80 μl) were added in duplicate to 96 wells, each containing 20 μl CaCl2 to give the following final concentration per well of 10 mM. Clot formation and dissolution were monitored at RT measuring turbidity at 405 nm in 5 min intervals.

[4] = biological target: T2, PAI-1 (Mus musculus, UniProt P22777); assay: Murine thromboembolism model (tPA/thromboplastin); type: in vivo; conditions: POPRL 7-12 10 mg/kg i.v. 5 min before t-PA/thromboplastin; control 50; p=0.3
T2 construct: from tissue; host or cells: BalbC Njrj mice, in vivo (blood)
T2 sequence (P22777 23-402): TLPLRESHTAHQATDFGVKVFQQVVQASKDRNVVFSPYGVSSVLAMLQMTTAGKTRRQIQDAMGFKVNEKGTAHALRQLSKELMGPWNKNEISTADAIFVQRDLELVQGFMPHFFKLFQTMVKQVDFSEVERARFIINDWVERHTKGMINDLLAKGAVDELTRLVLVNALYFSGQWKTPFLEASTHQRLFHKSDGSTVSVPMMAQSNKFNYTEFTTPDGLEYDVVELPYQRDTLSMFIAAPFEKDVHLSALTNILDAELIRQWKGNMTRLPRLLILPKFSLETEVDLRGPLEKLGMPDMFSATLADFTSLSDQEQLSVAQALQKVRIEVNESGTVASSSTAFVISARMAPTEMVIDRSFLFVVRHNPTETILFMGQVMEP
Experimental: BalbC Njrj Mice were used and anesthetised with ketamine/xylazine throughout the whole experiment. Recombinant 16K PRL and adenovirus vectors 16K-Ad and Null-Ad were produced as described above. The animal experiment protocol used was approved by the Institutional Ethics Committee of the University of Liege.
Recombinant 16K PRL (1 mg/kg) or POPRL 7-12 (10 mg/kg) were administrated via the vein to BalbC Njrj mice of approximately 15-18 g. Five minutes after the injection, a suboptimal concentration of t-PA (0.1 mg/kg) was injected immediately followed by i.v. injection of thromboplastin (3.3 μg/kg) to evoke thromboembolism. Mice were evaluated after 15 min for survival. For experiment with adenovirus vectors, mice were injected into the tail vein with 10^9 pfu of 16K hPRL adenovirus (16K-Ad) and their corresponding control (Null-Ad) 5 days before the injection a suboptimal concentration of t-PA (0.1 mg/kg) injected immediately followed by i.v. injection of thromboplastin (3.3 μg/kg).
The fisher test was used to determine the significance of the differences in the mortality assays.

T1 sequence (P05121 24-402): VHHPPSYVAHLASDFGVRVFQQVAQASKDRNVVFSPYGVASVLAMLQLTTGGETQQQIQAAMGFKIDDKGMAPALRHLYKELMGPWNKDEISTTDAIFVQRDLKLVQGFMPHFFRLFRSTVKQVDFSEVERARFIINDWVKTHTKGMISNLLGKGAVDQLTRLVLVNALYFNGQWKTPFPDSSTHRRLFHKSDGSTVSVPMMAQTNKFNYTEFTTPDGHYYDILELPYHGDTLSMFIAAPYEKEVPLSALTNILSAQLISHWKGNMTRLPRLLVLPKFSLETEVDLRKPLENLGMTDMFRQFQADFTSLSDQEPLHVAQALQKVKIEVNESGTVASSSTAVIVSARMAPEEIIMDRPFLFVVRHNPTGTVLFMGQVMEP

Substance: 22K GH: the full fragment (full-length) growth hormone [reference compound]
- inhibition of PAI-1 function to inhibit uPA and tPA proteolytic activity ([1]; uPA, bovine plasminogen, PAI-1, absorbance 405 nm): did not show any inhibition
- inhibition of plasmin (Pln) generation in the presence of PAI-1 [2]: no effect

Substance: FLSLIV [POPRL 1-6]
- PAI-1 activity in vitro (chromogenic assay) [1]: yes
- ablility to induce clot lysis [3]: yes

Substance: IQSWLE [POGH 9-14]
- PAI-1 activity in vitro (chromogenic assay) [1]: yes
- ablility to induce clot lysis [3]: yes

Substance: IVSILR [POPRL 5-10]
- PAI-1 activity in vitro (chromogenic assay) [1]: yes
- ablility to induce clot lysis [3]: yes

Substance: LLRISL [POGH 1-6]
- PAI-1 activity in vitro (chromogenic assay) [1]: yes
- ablility to induce clot lysis [3]: yes

Substance: LLRISLLLIQSWLE [POGH]
- PAI-1 activity in vitro (chromogenic assay) [1]: yes
- ablility to induce clot lysis [3]: yes

Substance: LSQILSSLIQSWLE [POGHmut, reference compound]
- PAI-1 activity in vitro (chromogenic assay) [1]: no
- ablility to induce clot lysis [3]: no

Substance: RISLLL [POGH 3-8]
- PAI-1 activity in vitro (chromogenic assay) [1]: yes
- ablility to induce clot lysis [3]: yes

Substance: SILRSW [POPRL 7-12]
- PAI-1 activity in vitro (chromogenic assay) [1]: yes
- ablility to induce clot lysis [3]: yes
- mortality [4]: 30%

Substance: SLLLIQ [POGH 5-10]
- PAI-1 activity in vitro (chromogenic assay) [1]: yes
- clot lysis in the presence of added PAI-1 [3]: as effective as the tilted peptide of GH: POGH
- ablility to induce clot lysis [3]: yes
